Here are results for one molecule from paper PMC4136481.

The target in this experiment is T1, basic region-leucine zipper (B Zip) domain of the transcription factor CCAAT/enhancer binding protein α (C/EBPα) (rat), P05554.
T1 chain: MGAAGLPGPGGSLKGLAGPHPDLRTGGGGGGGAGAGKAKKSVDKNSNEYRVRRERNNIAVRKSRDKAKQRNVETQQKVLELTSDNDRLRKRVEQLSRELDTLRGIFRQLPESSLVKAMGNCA
Briefly: FRET or BRET. As to conditions: remark: other sources report otherwise.

B1: basic region-leucine zipper (B Zip) domain of the transcription factor CCAAT/enhancer binding protein α (C/EBPα), P05554 237-358 (domain or fragment)
chain: T1 chain
With B1, the donor fluorescence lifetime τm in the presence of the acceptor, mean turned out to be 2.78 ns.
